Measured values published in the nanobody polyreactivity screen of Harvey et al. (2022).

Test: yeast display, Sf9 membrane polyspecificity reagent, FACS + sequencing; frameworks hold sequencing errors
Method in brief: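 Synthetic nanobody libraries on Saccharomyces cerevisiae BJ5465 were galactose-induced for 36–48 hours, stained 1 hour at 4 °C with 10% biotinylated, detergent-solubilized Sf9 membrane reagent and enriched on streptavidin microbeads. FACS then separated cells into low and high (top ~1%) gates by anti-HA (expression) and streptavidin (reagent binding) fluorescence. Genes were colony-PCR amplified, MiSeq 2 × 250 sequenced and CDR-length filtered. A clone's polyreactivity label is that of its gate of origin.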

Sequence	polyreactivity (PSR sort gate)
QVQLVESGRGLVQAGGSLRLSCAASGFTFRTYAMGWYRQSPGKERELDAAITRNGGTYYADSVKGRFTISRDNAKITVYLPMNSLKPEDTARYYCATDPAYWGDLPPEDDYWGQGTQVTVSS	low polyreactivity
QVQLVESGGGLVQAGGSLRLSCAASGSTFLVYAMGWYRQAPGKERELVADITSRGGSTYYADSVKGRFTISRDNAKNTVYLQMISLKPEDTAVYYCAARKRFVLFDYWGQGTQVTVSS	low polyreactivity
QVQLVESGGGLVQAGGSLRLSCAASGSTFDHYTMGWYRQAPGKERELVAAINRIGDSTYYADSVKGRCTISRDNAKNTVYLQMTSLKPEDTAVYYCNTVSLSLRFDYWGQGTQVTVSS	high polyreactivity
QVQLVESGGGLVQAGVSLRLICAASGRIFALNTMGWYRQAPGKEREFVAAITTSGGSTYADSVKGRFTISRDNAKNTVYFQMNSLKPEYTAVYYFNKEYFHNWAPTYDYWGQGTQVTVSS	low polyreactivity
QVQLVESGGGLVQPGGRLRLSCEASGIFTDYAMGCYRQEPGKERELVAAISWRGGSTYFADSVKGRFTISRDNAKKTVYLQMHSLKPEDTAVFYCAAGVRGGGGRYRYGYWGQGTQVTVSS	high polyreactivity
QVQLVESGGGLVQAGGSLRLSCDASGNTFSRYAMGWYRQAHGKERELVAAITSSGGSTYYADSVKGRFTISRDNAKNTVYLQMNSLKPEDTAVYYCAATSYYTREHYYYWGQGTQVTVSS	high polyreactivity
QVQLVESGGGLVQAGGSLRLSCAASGSIFKYYAMGWYRQAPGKERELVAAISSGGSTKYADSVKGRFTISRDNAKNTVYLQMNSLKPEDTAVYYCAARDPSRHARRAYDYWGEGTQVTVSS	low polyreactivity
QVQLVESGGGLVQAGGSLRLSCAASGLIFRRYAMGRNRQAHGKERELVAAISRSGGSTYYADSVKGRFTISRDNEKNTVYLQMNSLKPEDTAVYYCAADYAPVFWGDYKYDYWGQGTQVTVSS	high polyreactivity
QVQLVESGGGLVQAGGSLRLSCAASGYIWYNAMRWYRQAPGKERELVAAISWGGGTTYYADSVKGRFTISRDNAKNTVYLQMNSLKPEDTAVYYCAAVDAVGPTSHAMYYWGQGTQVTVSS	low polyreactivity
QVQLVESGGGLVQAGGSLRLSCAASGRIFRRYAMGWYRQAPGKERELVAAISSGGSTYYADSVKGRFTISRDNAKNTVYLQMNSLKPEDTAVYYCNAIVGAYLNYGYWGQGTQVTVSS	low polyreactivity
QVQHVESGGGLVQAGGSLRLTCAATGFTFEKNAMGWYRQAPGKERELVAAISRGGSTYADSVKGRFTISRDNAKNTVYLQMNSLKPEDTAVYYCAADTVYIFSSAINGEFVFWGQGTQVTVSS	low polyreactivity
QVQLLVTGGGLVQAGGTLRISCAASGSIFYSYAMGWYRQSPGKERELVAAITGGGSTNYADSVKGRFTISLDNAKNTVYLQMNSLKPEDTAVYYCATDLYPIGAVIRYDYWGQGTQVTVSS	low polyreactivity
QVQLVESGGGLVQAGGSLRLSCAASGLTSLSYAIGWYRQAPGKERELVAAITLSGCRTYYADSVKGRFTISRDNAKNTVYLQMNSLIPEDTAVYFCAVAGYWYSYGRKYLTTFEYWGQGTQVTVSS	high polyreactivity
QVQLVESGVGLVQAGGSLRLSCAASGSTFGGNAMGWYRQAPGKEREKVADITFSGGSTSYADSVKGRFTISRDNAKKTVYLQMNSLKPEDTAVYYCNRDYPEIIVAGLDYWGQGSQVTVSS	low polyreactivity
QVQLVESGGGLVQAGGSLRLSCAASGRTFAFNAMGWYRQAPGKERELVATISWSGGSTYYADSVKGRFTISRDNAKNTVYLQMNSLKPEDTAVYYCAKVVRGSNDYDYWGQGTQVTVSS	high polyreactivity
QVQLVESGGGLVQAGGSLRLSCAASGLIFYGNAMGWYREAPGKERELVAAISRRGGRTYYADSVKGRYTISRDNAKNTVYLQMNSLKPEDTAVYYCAAGVPKNGQAGYDYWGQGTQVTVSS	high polyreactivity
QVQLVESGGGLVQAGGSLRLSCAASGITIGRNTMGWSRQAPRKERELVAAIDSGGNTYADSVKGRFSISRDNAMNTVYLQMNSLKPEDTAVYYCAVDGGEFSSYGFWGQGTQVTVSS	low polyreactivity
QVQLVESGGGLVQAGGILRLSCAASGSTGTYMGSYRQAPGKEREMVAAIDNIGDNTYYADSVKGRFTISRDNAKNTVYLQMNSLKPEDTAVYYCPADFYVYYPWLFEYDYWGQGTQVTVSS	low polyreactivity
QVQLVESGGGLVQAGGSLRLSCAASGSIFRVYAMGWYRQAPGKERELVAVGSTYYADSVKGRFTISRDNAKNTVYLQMNSLKPEDTAVYYCARRGKSRYSYHYWGQGTQVTVSS	high polyreactivity
QVQLVESGGGLVQAGGSLRLSCAASRNIFRYYVMGWYRPAPGKEREFVAAISYRAGSTYYADSVKGSFTISRDNAKNTVYLQMNSLKPEDTAFYYCNAERTRDFYEYDYWGQGTQVTVSS	low polyreactivity
QVQLVESGGGLVQAGGSLRLSCAASGLTFYYYAMGWYRQAPGKERELVAAITSGGITYYADSVKGRFTISRDNEKNTVYLQMNSLKPEDTAVYYCAARYHIDTLFYGSRYDYWGQGTQVTVSS	high polyreactivity
QVQLVESGGGLVQAGGSLRLSCAASGRTFIGNAMGWYRQAPGKERELVAGIDSDGSTNYADSVKGRFTISRDNAKNTVYLQMNSLKPEDTAVYYCAAVQGYRFYEYYYWGQGTQVTVSS	low polyreactivity

Sequence	polyreactivity (PSR sort gate)
QVQLVESGGGLVQAGGSLRLSCAASGYTFSYYAMGWYRQAPGKERELVAAISWSGGSTYYADSVKGRFTISRDNAKNTVYLQMNSLKPEDTAFYYCAAKPWRGTLMRYGYWGQGTQVTVSS	high polyreactivity
QVQLVESGGGLVQAGGSLRLSCAASGRTFDLYDMGWYRQAPGKERELVARISYNGGITYYADSVKGRFTISRDNAKNTVYLQMNSLKPEDTAVYYCDGRYRPHFGPLFEYDYWGQGTQVTVSS	low polyreactivity
QVQLVESGGGLVQAGGSLRLSCAASGSIFTVYAMGWYRQAPGKERELVAAITRNGGRTYYADSVKGRFTISRDNAKNTVYLQMNSLKPEDTAVYYCAAPGLYSRLDYWGQGTQVTVSS	high polyreactivity
QVQLVESGGGLVQAGGSLRLSCAASGSTFGYYAMGWYRQAPGKERELVAAITSSGGSTYYSDSVKGRFTISRDNAKNTVYLQMYSMNPEDTAVYDCNTRWCFYIDPFYYEYDYWGQGSQVTVSS	low polyreactivity
QVQLVESGGGLVQAGGSLRLSCAASGRIFYANAMGWYRQAPGKERELVAAISSGGSTYYADSVKGRFTISRDNAKNTVYLQMNSLKPEDTAVYYCAKDTGSRTDSWTVWHDYWGQGTQVTVSS	low polyreactivity
QVQLVESGGGLVQAGGSLRLSCAASGSIFGINAMGWYRQAPGKERELVAAISGSTSRTYYADSVKGRFTISRDNAKNTVYLQMNSLKPEDTAVYYCAVVGLRSVTRRSYYWGQGTQVTVSS	high polyreactivity
QVQLVESGGGLVQAGGSLRLSCAASGFTFIDYAMGWYRQAPGKERALVAAITSRGGSTYYADSVKGRFTISRDNAKNTVYLQMNSLKPEDTAVYYCNAGSSFWYAYEYWGQGTQVTVSS	high polyreactivity
QVQLVESGGGLVQAGGSLRLSCAASGSIFSYNVMGWYRPAPGKERELVAAITQSGTSTYYADSVKGRFTISRDNAKNTVYLQMNSLKPEDTAVYYCAVDWYSAYGGYYWSQYDYWGQGTQVTVSS	low polyreactivity
QVQLVESGGGLVQAGGSLRLSSAASGLIFYDNMGWSRQAPGKERELDAAISSSGGSTSDADSVKGRFTISRDNAKNTVYLQMNSLKPEDTAVYYCAADSYPDYLGFVGFDYWGQGTQVTVSS	low polyreactivity
QVQLVESGGGLVQAGGSLRLSCAASGSTFELYAMGLYRQAPGKERELVASITGDSTNYADSVKGRFTISRDNAKNTVYLQMNSLKPEDTAVYYCAAEYVPYYEYESWGQGTQVTVSS	low polyreactivity
QDQLVESGGGLVQAGCSLRLSCAASGSTIPYNAMGWYRQAPGKERELVAAITWRAGRTYYADSVKGRFTISRDNAKITVYLQMNSLKAEDTAVYDCAKSYQRGVNHYEYWGQGTQVTVSS	high polyreactivity
QVQLVESGGGLVQAGGSLRVSCAASGGTFCNYAMGWNRQAPGKERELVAAITSGGGSTYYADSVKGRFTISRDIAKNTVYLQMNSLKPEDTAVYYCAARRSSYGYWGQGTQVTVSS	high polyreactivity
QDQLVESGGGLVQAGGSLRLSCAASGRILASYAMGWYRQAPGKERELVAAISLSGGSTYYADSVKGRFTISRDNAKNTVYLQMNSLKPEDTAVTYCAAKYPQKTPVNSYGNSFYYWGQGTQVTGSS	low polyreactivity
QVQLVESGGGLVQAGGSLRLICAAAGFIFKRYAMGWYRQAPGKERELVAAITSNGGRTYYADSVKGRFTISRDNAKNTVYFQMNSLKPEDTEVYYCARVSQYYEQDDYWGQGTQVTVSS	high polyreactivity
QVQLVESGGVLVQAGGSLRLSCAASGSTFPWYAMGWYRPAPGKERELVAAITARGTRTYYADSVKGRFTISRDNAKNTVYLQMNILKPEDTAVYYCNAGISSRYDYWGQGTQVTVSS	high polyreactivity
QVQLVESGGGLVQAGGSLRLSCAASGSIFRANVMGWYRQAPGKERELVASINSDDNTYYADSVKGRFTISRDNAKNTVYLQMKRLKPEDSAVYYCYSEWGLFYDWTVLHMYLDGYYYWGQGTEVTVSS	low polyreactivity
QVQLVESGVGLVHAGGSLRLSCAASGFTFKENAMGWYRQAPGKERELVAAISSTGGSTYYADSVKGRFTISRDIAKNTVYLQINRLKPEDTAVYYCAASTYWYDGDYWGQGTQVTVSS	high polyreactivity
QVQLVESGGGLVQAGGSLRISCAASASIFPQYALGWYRQAPGKERELVAGISGSGGGTYYADSVKGRFTISRDNAKNTVSVQIHSLKPEDTAVYYCYDYWRQGTQVTVSS	low polyreactivity
QVQLVESGGGLVQAGGSLRLSCAASGRTFGVNAMGGYRQAPGKERELVAAISKRGGSTYYADSVKGRFTISRDNAKNTVYLQMNSLKPEDTAVYYCAKDQPHRGPMDYWGQGTQVTVSS	high polyreactivity
QFQLVESGGGLVQAGGSLRLSCAASGSTFFVYDMGWYRQATGKEGELVAAISISDGGTYYADSVKGRFTISRDNAKNTVYLQMKSLKPEDTAVYYCAADYSERYFPGYDYWGQGTLVTVSS	low polyreactivity
QVQLVESGGGLVQAGGSLRLSCAASGFTFYPYAMGWYRQAPGKESEFVAAITWRGASTYYADSVKGRFTISRDNAKNTVYLQMNSLKPEDTAVYYCNARWRVPRYRYDYWGQGTQVTVSS	high polyreactivity
